T1: VIP (Vasoactive Intestinal Peptide) (human)
T1 construct: also called human VIP
T1 peptide: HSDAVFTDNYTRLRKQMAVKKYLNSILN

T2: PACAP27 (Pituitary Adenylate Cyclase-Activating Polypeptide, 27 amino acids) (human, the C-terminal leucine is amidated)
T2 construct: also called human PACAP27
T2 peptide: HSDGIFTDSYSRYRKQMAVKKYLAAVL

T3: PACAP38 (Pituitary Adenylate Cyclase-Activating Polypeptide, 38 amino acids) (human, not fully specified; the C-terminal lysine is amidated)
T3 construct: In the HTRF and PC-12 cell assays the peptide was N-terminally or C-terminally biotinylated; unlabelled in SPR; also called human PACAP38; huPACAP (1-38)
T3 peptide: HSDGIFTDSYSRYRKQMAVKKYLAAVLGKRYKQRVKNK


What was measured:
[1] = target: T1, VIP (Vasoactive Intestinal Peptide); assay: SPR (ProteOn XPR36), antibody amine-coupled, peptide analyte, 1:1 Langmuir fit
[2] = target: T2, PACAP27 (Pituitary Adenylate …); assay: inhibition of 0.1 nM 125I-PACAP27 binding to membranes with human PAC1-R long isoform, filter binding
Description: To identify antibodies that block PACAP27 binding to PAC1-R, antibodies at an initial concentration of 30 nM were diluted in incubation buffer (50 mM Hepes pH 7.4, 1 mM CaCl₂, 5 mM MgCl₂, 0.2% BSA) and serial 1:3 dilutions were performed. Antibody dilutions (30 nM, 10 nM, 3 nM, 1 nM, 0.3 nM, 0.1 nM, 0.03 nM, 0.01 nM, 0.003 nM and 0.001 nM) were then mixed and pre-incubated at 25° C. for 30 minutes with 0.1 nM of ¹²⁵I-labelled PACAP27 in incubation buffer. The antibody: ¹²⁵I-labelled PACAP27 mixture was then added to 0.5 μg aliquots of cell membranes derived from Chem-1 cells expressing human recombinant PAC1-R long isoform in incubation buffer. The mixture was then incubated for 1 hour at 25° C. Following incubation, the samples were filtered and washed. Afterward, the filters were counted to quantitate ¹²⁵I-labelled PACAP27. As an experimental control, non-specific binding to the cell membranes was estimated using 0.1 μM of […] PACAP27.

[3] = target: T3, PACAP38 (Pituitary Adenylate …); assay: inhibition of 30 nM biotinylated PACAP38 binding to PAC1-R-expressing PC-12 cells, Eu-streptavidin TRF
Description: (§1) To identify antibodies that block PACAP38 binding to PAC1-R-expressing cells, adherent PC-12 cells (ATCC, Manassas, VA) expressing PAC1-R were used in a Europium-based PAC1-R-expressing cells binding assay. Antibody solutions were incubated with N-terminal biotinylated PACAP38 at 10× the final concentration (100 nM or 30 nM) for 1 hr, then added to PC-12 cells that were plated 24 hrs prior in black clear bottom 96 well plates (COSTAR™, Corning Incorporated, Corning, NY) and further incubated for 1 hr at room temperature. After three washes, the cells were incubated with 20 μl Europium-labeled streptavidin (PerkinElmer, Waltham, MA) for 1 hr at room temperature. Cells were washed three times, then 20 μl DELFIA® Enhancement solution (PerkinElmer, Waltham, MA) was added to each well and incubated for 15 minutes with gentle shaking. Plates were read (Time Resolved Fluorescence (“TRF”)) on SPECTRAMAX® (Molecular Devices, Sunnyvale, CA) plate reader.
(§2) FIGS. 14A-14H are representative of the inhibition curves obtained by this method (results are shown for Ab10, Ab20, Ab21, Ab1.H, Ab10.H, Ab21.H, Ab22, and Ab23, respectively) wherein the PAC1-R expressing cells were PC-12 cells.

[4] = target: T3, PACAP38 (Pituitary Adenylate …); assay: HTRF binding assay, antibody dilution series on 35 nM biotinylated PACAP38
Description: In parallel, 10 μl of an antibody dilution series (highest final concentration of 100 nM) were incubated with 10 μl of N-terminal or C-terminal biotinylated PACAP38 (35 nM final) alone, or in combination with either PACAP27 (350 nM final) or VIP (350 nM final), i.e., 10× PACAP27 or 10× VIP, respectively, in a HTRF plate. 20 μl of Eu³⁺ cryptate labeled anti-hu Fc donor and 20 μl of d2-labeled streptavidin acceptor were added to each well and incubated for 1 hour at room temperature. Fluorescence was measured at 620 and 665 nm with a delay of 300 usec.
EC₅₀ values, i.e. the concentration of an antibody that yields a response halfway between the baseline and the maximum value within a specified time period, were computed for each antibody based upon their binding curves and are shown in Table 1 below. […] A humanized form of antibody Ab1 identified by an appended “.H”, i.e., Ab1.H also bound PACAP38 with high affinity.

[5] = target: T3, PACAP38 (Pituitary Adenylate …); assay: inhibition of 100 nM biotinylated PACAP38 binding to PAC1-R-expressing PC-12 cells, Eu-streptavidin TRF
Description: as §1, §2

[6] = target: T1, VIP (Vasoactive Intestinal Peptide); assay: SPR (ProteOn XPR36), antibody amine-coupled, peptide analyte, 1:1 Langmuir fit; SPR, direct binding of VIP to the antibody; weak, KD 2.8E-07 M
[7] = target: T1, VIP (Vasoactive Intestinal Peptide); assay: SPR (ProteOn XPR36), antibody amine-coupled, peptide analyte, 1:1 Langmuir fit; SPR, direct binding of VIP to the antibody; weak, KD 1.1E-06 M

| Kd [1] [nM] | koff [1] [s⁻¹] | kon [1] [M⁻¹ s⁻¹] | IC50 [2] [nM] | IC50 [3] [nM] | EC50 [4] [nM] | IC50 [5] [nM] | Kd [6] [nM] | koff [6] [s⁻¹] | kon [6] [M⁻¹ s⁻¹] | Kd [7] [nM] | koff [7] [s⁻¹] | kon [7] [M⁻¹ s⁻¹] | Binder |
| --- | --- | --- | --- | --- | --- | --- | --- | --- | --- | --- | --- | --- | --- |
| 100 | 0.039 | 380000 | 0.22 | 14.5 | – | – | – | – | – | – | – | – | Ab10.H (antibody, human IgG1, kappa, N297A, Full-length humanized variant of Ab10) heavy: not shown light: DAQLTQSPSTLSASVGDRVTITCQSSESVYGNYLAWFQQKPGKAPKFLIYEASKLESGVPSRFSGSGSGTEFTLTISSLQPDDFATYYCAGGDISEGVAFGGGTKVEIKRTVAAPSVFIFPPSDEQLKSGTASVVCLLNNFYPREAKVQWKVDNALQSGNSQESVTEQDSKDSTYSLSSTLTLSKADYEKHKVYACEVTHQGLSSPVTKSFNRGEC |
| – | – | – | – | – | 0.36 | 17.8 | 280 | 0.01 | 37000 | – | – | – | Ab10 (antibody, human IgG1, kappa, N297A, V domains shown, Full-length anti-PACAP antibody; rabbit variable regions cloned onto human constant regions (rabbit/human chimeric), expressed in HEK-293) VH: QSVEESGGRLVTPGTPLTLTCTVSGIDLNSYYMTWVRQAPGKGLEWIGFIDAGGDAYYASWAKGRFTISKTSTTVDLKITSPTTEDTATYFCARDLDLWGQGTLVTVSS VL: AAVLTQTPSPVSAAVGGTVTINCQSSESVYGNYLAWFQQKPGQPPKLLIYEASKLESGVPSRFSGSGSGTQFTLTISDLQCDDAATYYCAGGDISEGVAFGGGTEVVVKR |
| – | – | – | – | – | 0.38 | 32.7 | – | – | – | 1100 | 0.48 | 450000 | Ab20 (antibody, human IgG1, kappa, N297A, V domains shown, Full-length anti-PACAP antibody; rabbit/human chimeric) VH: QSVEESGGRLVTPGTPLTLTCTVSGIDLSSYYMSWVRQAPGKGLEWIGFIDTDGSAYYATWAKGRFTISKTSTTVDLKITSPTTEDTATYFCARDLDLWGPGTLVTVSS VL: AAVLTQTPSPVSAAVGGTVSISCQSSESVYSNYLAWFQQKPGQPPKFLIYEASKLASGVPSRFKGSGSGTQFTLTISDVQCDDAGTYYCAGGYSSEGVAFGGGTEVVVKR |

— US20250009876A1 (H LUNDBECK A S, published 2025)
